Test results taken from PMC10716038, “Talin and kindlin use integrin tail allostery and direct binding to activate integrins” (Nature Structural & Molecular Biology, 2023).
Residue numbers refer to the chain shown, from its start. Names and notes keep the numbering of the source. Values joined by “and” are separate entries in the source; they are usually repeats but may differ in a detail not shown here. Identical values can stand only once. No end group written: not given here.

B1: THD1 K402E (domain or fragment, UniProt P26039 1-405, looked up)
chain: MVALSLKISIGNVVKTMQFEPSTMVYDACRMIRERIPEALAGPPNDFGLFLSDDDPKKGIWLEAGKALDYYMLRNGDTMEYRKKQRPLKIRMLDGTVKTIMVDDSKTVTDMLMTICARIGITNHDEYSLVRELMEEKKDEGTGTLRKDKTLLRDEKKMEKLKQKLHTDDELNWLDHGRTLREQGVEEHETLLLRRKFFYSDQNVDSRDPVQLNLLYVQARDDILNGSHPVSFDKACEFAGFQCQIQFGPHNEQKHKAGFLDLKDFLPKEYVKQKGERKIFQAHKNCGQMSEIEAKVRYVKLARSLKTYGVSFFLVKEKMKGKNKLVPRLLGITKECVMRVDEKTKEVIQEWSLTNIKRWAASPKSFTLDFGDYQDGYYSVQTTEGEQIAQLIAGYIDIILKEKKS
notes: talin-1 (TLN1) head domain, residues 1-405, K402E; source: E. coli (DE3) Rosetta 2, purified (IMAC, SEC); not shown: His10-SUMO, N-terminal, cleaved
B2: kindlin-2 (KIND2) (natural protein, UniProt Q8CIB5 1-680, looked up)
chain: MALDGIRMPDGCYADGTWELSVHVTDLNRDVTLRVTGEVHIGGVMLKLVEKLDVKKDWSDHALWWEKKRTWLLKTHWTLDKCGIQADAKLQFTPQHKLLRLQLPNMKYVKVKVNFSDRVFKAVSDICKTFNIRHPEELSLLKKPRDPTKKKKKKLDDQSEDEALELEGPLIMPGSGSIYSSPGLYSKTMTPTYDAHDGSPLSPTSAWFGDSALSEGNPGILAVSQPVTSPEILAKMFKPQALLDKAKTNQGWLDSSRSLMEQDVKENEALLLRFKYYSFFDLNPKYDAIRINQLYEQAKWALLLEEIECTEEEMMMFAALQYHINKLSIMTSENHLNNSDKEVDEVDAALSDLEITLEGGKTSTILGDITSIPELADYIKVFKPKKLTLKGYKQYWCTFKDTSISCYKSREESSGTPAHQLNLRGCEVTPDVNISGQKFNIKLLIPVAEGMNEIWLRCDNEKQYAHWMAACRLASKGKTMADSSYNLEVQNILSFLKMQHLNPDPQLIPDQITTDVNPECLVSPRYLKKYKSKQITARILEAHQNVAQMSLIEAKMRFIQAWQSLPEFGITHFIARFQGGKREELIGIAYNRLIRMDASTGDAIKTWRFSNMKQWNVNWEIKMVTVEFADEVRLSFICTEVDCKVVHEFIGGYIFLSTRAKDQNESLDEEMFYKLTSGWV
notes: kindlin-2 (KIND2), recombinant; with the F1 loop and the PH domain (unlike ΔKIND2); source: E. coli Rosetta, purified (IMAC, SEC); not shown: His10-SUMO, N-terminal, cleaved
B3: ATTO 488-labeled talin-binding-impaired β3-CT Y772A (peptide, UniProt O54890 741-787, looked up)
peptide: {ATTO 488}-KLLITIHDRKEFAKFEEERARAKWDTANNPLAKEATSTFTNITYRGT
notes: integrin β3 cytoplasmic tail (β3-CT), Y772A; source: synthetic peptide (MPIB Core Facility)
B4: KIND2 Y13A (natural protein, UniProt Q8CIB5 1-680, looked up)
chain: B2 chain with Y13A
notes: kindlin-2 (KIND2), recombinant, Y13A; source: E. coli Rosetta, purified (IMAC, SEC); not shown: His10-SUMO, N-terminal, cleaved

Assays:
Details in all cases: both partners purified
[1] = biological target: T1, biotinylated integrin β1 transmembrane and cytoplasmic tail polypeptide (β1-TM–CT) in nanodiscs (UniProt P09055 726-798, biotin (biotin-maleimide)); test: flow cytometry-based reporter-displacement assay (FC-RDA) on beads; biotinylated TM–CT in 10% PIP3/90% DMPC nanodiscs on streptavidin beads; reporter 50 nM 647–KIND2, unlabelled competitor titrated; 20 mM Tris pH 7.5, 200 mM NaCl, room temperature; IC50 of individual experiments; charged lipids contribute to the binding
T1 construct: integrin β1 TM and CT, residues 726-798; embedded in MSP2N2 nanodiscs with 10% PIP2 or PIP3 and 90% DMPC, on average one TM–CT per nanodisc; held on streptavidin beads; also called b1; source: E. coli BL21 (DE3) Rosetta 2, inclusion bodies, purified (IMAC, cation exchange)
T1 sequence (P09055 726-798): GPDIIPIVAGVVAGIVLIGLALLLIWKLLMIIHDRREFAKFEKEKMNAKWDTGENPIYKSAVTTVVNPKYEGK

[2] = biological target: T1, biotinylated integrin β1 transmembrane …; test: flow cytometry-based reporter-displacement assay (FC-RDA) on beads; biotinylated TM–CT in 10% PIP2/90% DMPC nanodiscs on streptavidin beads; reporter 50 nM 647–KIND2, unlabelled competitor titrated; 20 mM Tris pH 7.5, 200 mM NaCl, room temperature; IC50 of individual experiments; charged lipids contribute to the binding
[3] = biological target: T2, biotinylated integrin β3 transmembrane and cytoplasmic tail polypeptide (β3-TM–CT) in nanodiscs (UniProt O54890 715-787, biotin (biotin-maleimide)); test: as above
T2 construct: integrin β3 TM and CT, residues 715-787; embedded in MSP2N2 nanodiscs with 10% PIP2 or PIP3 and 90% DMPC; held on streptavidin beads; also called b3; source: E. coli BL21 (DE3) Rosetta 2, inclusion bodies, purified (IMAC, cation exchange)
T2 sequence (looked up): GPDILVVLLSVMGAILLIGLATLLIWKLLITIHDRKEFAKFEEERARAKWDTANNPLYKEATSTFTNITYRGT

[4] = biological target: T1, biotinylated integrin β1 transmembrane …; test: flow cytometry-based reporter-displacement assay (FC-RDA) on beads; biotinylated TM–CT in PIP2-containing nanodiscs on streptavidin beads; reporter 565–THD1-K402E, unlabelled competitor titrated; IC50 of individual experiments
[5] = biological target: T2, biotinylated integrin β3 transmembrane …; test: as above
[6] = biological target: T2, biotinylated integrin β3 transmembrane …; test: flow cytometry-based reporter-displacement assay (FC-RDA) on beads; biotinylated TM–CT in 10% PIP3/90% DMPC nanodiscs on streptavidin beads; reporter 50 nM 647–KIND2, unlabelled competitor titrated; 20 mM Tris pH 7.5, 200 mM NaCl, room temperature; IC50 of individual experiments; charged lipids contribute to the binding
[7] = biological target: T2, biotinylated integrin β3 transmembrane …; test: flow cytometry-based reporter-displacement assay (FC-RDA) on beads; biotinylated TM–CT in 10% PIP3/90% DMPC nanodiscs on streptavidin beads; reporter 100 nM 565–THD1, unlabelled competitor titrated; 20 mM Tris pH 7.5, 200 mM NaCl, room temperature; IC50 of individual experiments; charged lipids contribute to the binding
[8] = biological target: T1, biotinylated integrin β1 transmembrane …; test: flow cytometry-based reporter-displacement assay (FC-RDA) on beads; biotinylated TM–CT in 10% PIP2/90% DMPC nanodiscs on streptavidin beads; reporter 50 nM 647–KIND2, unlabelled competitor titrated; 20 mM Tris pH 7.5, 200 mM NaCl, room temperature; IC50 of individual experiments; charged lipids contribute to the binding; remark: listed apart in the source
kindlin-2 (KIND2) [9] = biological target: B2; test: MST; apparent; KIND2 titrated to 488–β3-CT Y772A in the presence of 500 µM THD1; MST buffer
kindlin-2 (KIND2) [10] = biological target: B2; test: MST; unlabelled protein titrated to 50-200 nM ATTO 488-labelled β-CT peptide, no third protein; 20 mM Tris pH 7.5, 200 mM NaCl, 1 mM TCEP, 0.05% Tween-20; Kd of individual titrations (in S0002 mean and sd, n = 2)
[11] = biological target: T1, biotinylated integrin β1 transmembrane …; test: flow cytometry-based reporter-displacement assay (FC-RDA) on beads; biotinylated TM–CT in PIP3-containing nanodiscs on streptavidin beads; reporter 647–KIND2-Y13A, unlabelled competitor titrated; IC50 of individual experiments
[12] = biological target: T2, biotinylated integrin β3 transmembrane …; test: as above
[13] = biological target: T1, biotinylated integrin β1 transmembrane …; test: flow cytometry-based reporter-displacement assay (FC-RDA) on beads; biotinylated TM–CT in 10% PIP2/90% DMPC nanodiscs on streptavidin beads; reporter 100 nM 565–THD1, unlabelled competitor titrated; 20 mM Tris pH 7.5, 200 mM NaCl, room temperature; IC50 of individual experiments; charged lipids contribute to the binding
[14] = biological target: T1, biotinylated integrin β1 transmembrane …; test: flow cytometry-based reporter-displacement assay (FC-RDA) on beads; biotinylated TM–CT in 10% PIP3/90% DMPC nanodiscs on streptavidin beads; reporter 100 nM 565–THD1, unlabelled competitor titrated; 20 mM Tris pH 7.5, 200 mM NaCl, room temperature; IC50 of individual experiments; charged lipids contribute to the binding
[15] = biological target: T2, biotinylated integrin β3 transmembrane …; test: as above; remark: listed apart in the source
[16] = biological target: T1, biotinylated integrin β1 transmembrane …; test: flow cytometry-based reporter-displacement assay (FC-RDA) on beads; biotinylated TM–CT in PIP2-containing nanodiscs on streptavidin beads; reporter 647–KIND2-Y13A, unlabelled competitor titrated; IC50 of individual experiments
[17] = biological target: T2, biotinylated integrin β3 transmembrane …; test: as above

B1
IC50 [1]: 0.332 µM and 0.291 µM and 0.217 µM and 0.447 µM
IC50 [2]: 0.271 µM and 0.366 µM and 0.201 µM and 0.258 µM
IC50 [3]: 0.186 µM and 0.206 µM and 0.276 µM and 0.136 µM

B2
IC50 [4]: 0.514 µM and 0.512 µM and 0.396 µM and 0.487 µM
IC50 [5]: 0.116 µM and 0.065 µM
IC50 [6]: 0.079 µM and 0.09 µM and 0.069 µM
IC50 [7]: 0.76 µM and 0.573 µM and 0.678 µM
IC50 [8]: 0.151 µM and 0.155 µM and 0.176 µM and 0.077 µM

B3
Kd (kindlin-2 (KIND2) [9]): 17.9 µM and 15.3 µM and 23.3 µM and 13.4 µM
Kd (kindlin-2 (KIND2) [10]): 20.3 µM and 13.8 µM and 12.5 µM

B4
IC50 [11]: 0.056 µM and 0.119 µM and 0.06 µM
IC50 [12]: 0.121 µM and 0.167 µM and 0.233 µM
IC50 [13]: 0.203 µM and 0.479 µM and 0.29 µM
IC50 [14]: 0.168 µM and 0.223 µM and 0.116 µM
IC50 [15]: 0.176 µM and 0.234 µM and 0.205 µM and 0.083 µM
IC50 [16]: 0.078 µM and 0.091 µM and 0.124 µM
IC50 [17]: 0.112 µM and 0.238 µM and 0.305 µM
